Results as given in US20230395187A1 (published 2023).

Target: SARS-CoV-2 spike protein, WT (SARS-CoV-2, UniProt P0DTC2 14-1208)
Assay: virus-free Luminex binding assay, spike on beads

B1: Imdevimab (RGN87) (antibody, V domains shown)
VH: QVQLVESGGGVVQPGRSLRLSCAASGFTFSNYAMYWVRQAPGKGLEWVAVISYDGSNKYYADSVKGRFTISRDNSKNTLYLQMNSLRTEDTAVYYCASGSDYGDYLLVYWGQGTLVTVSS
VL: QSALTQPASVSGSPGQSITISCTGTSSDVGGYNYVSWYQQHPGKAPKLMIYDVSKRPSGVSNRFSGSKSGNTASLTISGLQSEDEADYYCNSLTSISTWVFGGGTKLTVLG
- EC50: 0.082 µg/mL
